T1: human Nup133 β-propeller (human, UniProt Q8WUM0 67-514, limits assumed)
T1 construct: domain: β-propeller; also called human Nup133 beta propeller; human propeller
T1 sequence (looked up): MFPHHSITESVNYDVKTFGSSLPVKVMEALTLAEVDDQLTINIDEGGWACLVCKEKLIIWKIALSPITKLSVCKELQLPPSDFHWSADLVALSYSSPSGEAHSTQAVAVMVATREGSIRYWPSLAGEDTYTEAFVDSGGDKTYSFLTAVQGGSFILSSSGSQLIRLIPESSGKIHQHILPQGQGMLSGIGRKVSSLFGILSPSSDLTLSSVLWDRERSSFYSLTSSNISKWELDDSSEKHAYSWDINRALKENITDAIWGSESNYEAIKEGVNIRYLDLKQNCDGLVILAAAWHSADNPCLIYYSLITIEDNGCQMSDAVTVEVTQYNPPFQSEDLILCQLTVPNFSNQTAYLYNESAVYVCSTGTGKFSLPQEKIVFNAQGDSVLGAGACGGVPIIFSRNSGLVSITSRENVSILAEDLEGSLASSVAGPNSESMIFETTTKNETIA

T2: human Nup133 in nuclear pore complexes of HeLa cells (human, UniProt Q8WUM0 1-1156)
T2 construct: whole, on cells; Endogenous protein inside permeabilized HeLa cells, as part of assembled NPCs; not on the cell surface; also called human NPCs
T2 sequence (looked up): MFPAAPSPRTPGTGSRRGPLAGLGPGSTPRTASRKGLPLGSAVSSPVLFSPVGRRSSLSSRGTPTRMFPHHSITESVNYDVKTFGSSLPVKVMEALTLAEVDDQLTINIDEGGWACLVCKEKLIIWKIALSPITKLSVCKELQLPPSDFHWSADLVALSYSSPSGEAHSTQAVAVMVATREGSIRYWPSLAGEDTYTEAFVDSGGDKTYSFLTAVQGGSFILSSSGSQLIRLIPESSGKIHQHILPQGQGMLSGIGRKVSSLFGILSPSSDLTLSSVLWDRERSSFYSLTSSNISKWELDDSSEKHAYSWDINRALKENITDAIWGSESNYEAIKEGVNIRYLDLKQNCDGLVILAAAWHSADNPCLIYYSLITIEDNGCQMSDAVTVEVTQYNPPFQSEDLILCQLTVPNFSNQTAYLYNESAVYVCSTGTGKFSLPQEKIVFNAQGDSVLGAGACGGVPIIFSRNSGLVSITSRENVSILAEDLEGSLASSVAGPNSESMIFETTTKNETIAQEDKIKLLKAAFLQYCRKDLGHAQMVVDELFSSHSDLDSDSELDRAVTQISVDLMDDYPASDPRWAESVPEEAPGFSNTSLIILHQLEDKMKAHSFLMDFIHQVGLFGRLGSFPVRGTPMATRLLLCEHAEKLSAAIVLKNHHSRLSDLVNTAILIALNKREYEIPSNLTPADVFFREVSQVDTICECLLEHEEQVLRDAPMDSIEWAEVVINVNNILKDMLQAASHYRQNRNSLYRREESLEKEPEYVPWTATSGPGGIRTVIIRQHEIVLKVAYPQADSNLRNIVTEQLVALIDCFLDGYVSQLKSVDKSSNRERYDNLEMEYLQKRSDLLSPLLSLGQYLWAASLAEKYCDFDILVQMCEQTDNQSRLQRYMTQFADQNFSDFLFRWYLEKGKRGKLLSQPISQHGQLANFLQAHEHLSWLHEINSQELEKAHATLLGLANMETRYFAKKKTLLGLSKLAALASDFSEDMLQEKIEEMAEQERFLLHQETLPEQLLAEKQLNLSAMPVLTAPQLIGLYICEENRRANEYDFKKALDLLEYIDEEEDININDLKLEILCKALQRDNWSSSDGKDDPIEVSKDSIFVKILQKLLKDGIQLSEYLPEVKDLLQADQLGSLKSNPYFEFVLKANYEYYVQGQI

T3: human Nup358 (human, UniProt P49792 1-145)
T3 construct: The stainings were on whole NPCs of HeLa cells
T3 sequence (looked up): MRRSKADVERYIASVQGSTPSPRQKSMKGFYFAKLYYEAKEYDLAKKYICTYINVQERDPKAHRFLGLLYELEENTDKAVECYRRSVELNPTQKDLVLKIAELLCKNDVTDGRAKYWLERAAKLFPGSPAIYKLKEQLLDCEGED


Experiments:
[1] = biological target: T1, human Nup133 β-propeller; experiment: BLI (Octet Red96), biotinylated VHH on streptavidin sensors, 40 nM propeller in solution
[2] = biological target: T4, Xenopus Nup133 β-propeller (Xenopus); experiment: as above
T4 construct: domain: β-propeller; also called Xenopus Nup133 beta propeller; Xenopus propeller

[3] = biological target: T2, human Nup133 in nuclear pore complexes …; experiment: immunofluorescence of HeLa cells with fluorophore-labelled VHH (Figures 1 and 2)
[4] = biological target: T3, human Nup358; experiment: Table 1, target and cross-reactivity (immunofluorescence, Figure 1)

| Kd [1] | Kd [2] | binding result [3] | binding result [4] | Binder |
| --- | --- | --- | --- | --- |
| ~2 nM | < 0.01 nM | – | – | KG1D08, biotinylated, reduced form (structural cysteines not disulfide-bonded) (VHH, Biotin-PEG11-maleimide on the two additional cysteines at N- and C-terminus; structural cysteines reduced ; Two additional ectopic cysteines at the N- and C-terminus, not in the letters, each carry Biotin-PEG11-maleimide. Struct [CUT], Expressed in the cytoplasm of E. coli NEB Express; also called reduced KG1D08; not shown: The short N- and C-terminal extensions that carry the two ectopic, biotinylated cysteines) VHH: QVQLVESGGGLVQAGGSLRLSCAASGRSFRGNIMAWFRQTPGKERLFVASITGSGYTSYENSVKGRFTISRDSARDTVDLQMTTLAPEDTAVYYCAGRFRGGHNRMPDAYEYWGQGTQVTVSS |
| – | – | binds | – | KG1D08 (VHH, also called anti-Nup133 VHH KG1D08) VHH: QVQLVESGGGLVQAGGSLRLSCAASGRSFRGNIMAWFRQTPGKERLFVASITGSGYTSYENSVKGRFTISRDSARDTVDLQMTTLAPEDTAVYYCAGRFRGGHNRMPDAYEYWGQGTQVTVSS |
| ~2 nM | < 0.01 nM | – | – | KG1D08, biotinylated, post-production disulfide-bridged form (VHH, Biotin-PEG11-maleimide on the two additional cysteines at N- and C-terminus; structural cysteines quantitatively oxidized to the intramolecular disulfide bond ; Two additional ectopic cysteines at the N- and C-terminus, not in the letters, each carry Biotin-PEG11-maleimide. Struct [CUT], Same preparation as the reduced form, then treated with 2 mM GSSG and 1.5 µM each DsbA, DsbC, DsbG for 5 minutes at 52°C (45 minutes heat up); also called KG1D08 with post-production disulfide-bonding; disulfide-stabilized VHH; not shown: The short N- and C-terminal extensions that carry the two ectopic, biotinylated cysteines) VHH: QVQLVESGGGLVQAGGSLRLSCAASGRSFRGNIMAWFRQTPGKERLFVASITGSGYTSYENSVKGRFTISRDSARDTVDLQMTTLAPEDTAVYYCAGRFRGGHNRMPDAYEYWGQGTQVTVSS |
| – | – | – | binds | xhNup358-Nb2t (VHH, For staining the VHHs carried two ectopic cysteines (N- and C-termini) labelled with fluorophore maleimide) VHH: QVQLVESGGGLVQPGGSLRLSCAASGRPLSDYAMGWFRQAPGKEREFVAAISWKGGETFYAGSVKGRFTISRDDAKNSLYLQMNNLKLEDTAEYSCAAVLGSPHYSGTHYYPAEYDYWGQGTQVTVSS |
